Test results as given in patent US20210299212A1, “BINDNG MOLECULES TO TUMOR ASSOCIATED MACROPHAGES AND METHODS OF USE” (Sanford Burnham Prebys Medical Discovery Institute, priority 2018, published 2021).

Columns and labels:
4T1 tumors = assay: Immunofluorescence staining of tissues for FAM-peptide and CD31 at different homing time points; type: in vivo, mouse; conditions: 4T1 orthotopic tumor-bearing mice, i.v.
Description: FAM-CRV was intravenously injected into tumor bearing mice. To this end, 4T1 […] breast cancer cells were cultured in Dulbecco's modified Eagle's medium supplemented with 10% fetal bovine serum, 100 U/mL penicillin and 100 μg/mL streptomycin. The […] cell line was authenticated by the DNA Analysis Core Facility at the Sanford Burnham Prebys Medical Discovery Institute (La Jolla, Calif.) and tested negative for mycoplasma contamination. To produce 4T1 tumors, 1×10^6 tumor cells (suspended in 100 μL of PBS) were orthotopically injected into the mammary fat pad of normal BALB/c mice. All animal experimentation received approval from the Animal Research Committee of Sanford Burnham Prebys Medical Discovery Institute. Biodistribution of fluorescein-conjugated peptides (FAM-CRV, FAM-GGS, or FAM-ARA) was examined after intravenous injection of 100 μL peptide solution (1 mg/mL PBS) into the tail vein of a mouse. […] Tissues were collected, fixed with 4% formaldehyde buffer solution and then soaked in 30% sucrose in PBS overnight. Tissues were finally frozen in OCT embedding medium (Tissue-Tek), and sliced for immunofluorescence staining. Tissue sections were blocked in 1% bovine serum albumin with 0.1% Triton X-100 for 1 h, and incubated with appropriate primary antibodies and second antibodies. […]

[1] = tested on: cells isolated from tumors, spleen, liver, and blood from the 4T1 tumor mice; assay: Ex vivo binding to cells isolated from organs of 4T1 mice, flow cytometry; type: cell-based, mouse; conditions: 4T1 model, 4° C., 1 h
Description: Mice with tumor size about 8 mm were euthanized under deep anesthesia (Avertin, lack of response to a toe pinch) by cervical dislocation. Target (tumor) and control (e.g., liver, spleen) tissues were collected and further dissociated to single cells. Tumor cells were dissociated using MACS tumor dissociation kit. Cells were then incubated with fluorescent-labeled CRV or other cell markers (CD11b, CD68, F4/80, FAB, EpCAM, CD31) at 4° C. for 1 h. Positive cells were quantified on BD LSRFORTESSA and data were analyzed using FCS Express Version 3 (De Novo Software).

Bovine serum albumin = Bovine serum albumin (Bos taurus, UniProt P02769); assay: Binding of FAM-peptide to control protein immobilized on a plate; conditions: 1 μM, room temperature, 1 h, fluorescence
Bovine serum albumin, sequence (P02769 25-607): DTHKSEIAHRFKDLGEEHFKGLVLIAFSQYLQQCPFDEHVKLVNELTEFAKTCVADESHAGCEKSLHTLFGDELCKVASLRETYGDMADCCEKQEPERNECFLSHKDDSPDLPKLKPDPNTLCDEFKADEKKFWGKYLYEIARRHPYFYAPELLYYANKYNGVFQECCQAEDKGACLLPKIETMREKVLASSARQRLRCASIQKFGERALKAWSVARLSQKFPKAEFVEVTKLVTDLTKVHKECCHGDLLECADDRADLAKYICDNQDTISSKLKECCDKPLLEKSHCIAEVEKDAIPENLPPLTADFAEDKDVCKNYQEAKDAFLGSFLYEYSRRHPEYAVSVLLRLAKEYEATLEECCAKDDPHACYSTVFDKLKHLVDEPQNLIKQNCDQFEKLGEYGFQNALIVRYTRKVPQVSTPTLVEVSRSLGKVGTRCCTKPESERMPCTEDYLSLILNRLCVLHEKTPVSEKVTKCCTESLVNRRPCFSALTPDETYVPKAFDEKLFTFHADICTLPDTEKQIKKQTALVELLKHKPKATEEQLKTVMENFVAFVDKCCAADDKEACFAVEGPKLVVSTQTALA
Description: (§1) To confirm RXRB binds CRV, the binding of FAM-CRV to human recombinant RXRB protein immobilized on a plate was tested. Human RXRB recombinant protein (50 μL, 5 μg/mL) was immobilized in high binding 96-well plate at 4° C. overnight. Bovine serum albumin was used as the control protein. The protein solution was removed and washed one time with PBS. 1% BSA in PBS solution was then added to the wells and incubated at room temperature for 1 h to block the rest available binding sites. After one wash with PBS, RXRB and BSA were incubated with FAM-CRV (100 μL, 1 μM) at room temperature for 1 h. The wells were washed three times with PBS and the fluorescence was measured using a multiplate reader.

[2] = molecular target: T1, human recombinant RXRB protein (Homo sapiens, UniProt P28702); assay: Binding of FAM-peptide to protein immobilized on a plate; conditions: 1 μM, room temperature, 1 h, fluorescence
T1 sequence (P28702 1-533): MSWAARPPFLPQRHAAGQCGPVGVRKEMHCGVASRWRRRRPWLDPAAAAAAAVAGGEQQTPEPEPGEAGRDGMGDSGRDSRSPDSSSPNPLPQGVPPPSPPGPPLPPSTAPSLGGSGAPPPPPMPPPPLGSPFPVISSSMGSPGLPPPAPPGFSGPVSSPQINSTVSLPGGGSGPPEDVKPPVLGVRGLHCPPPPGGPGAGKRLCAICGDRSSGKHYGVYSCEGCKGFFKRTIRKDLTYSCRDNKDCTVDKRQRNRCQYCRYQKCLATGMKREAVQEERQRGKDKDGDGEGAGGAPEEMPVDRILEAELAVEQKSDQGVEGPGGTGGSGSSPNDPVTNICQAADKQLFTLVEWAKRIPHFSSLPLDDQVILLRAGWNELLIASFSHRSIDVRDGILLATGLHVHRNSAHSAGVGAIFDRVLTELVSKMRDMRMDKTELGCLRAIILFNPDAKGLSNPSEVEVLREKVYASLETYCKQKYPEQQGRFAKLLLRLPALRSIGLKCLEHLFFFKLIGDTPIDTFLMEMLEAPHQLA
Description: as §1

Sequence | fluorescence signal in the tumors at homing time points 5, 15, and 60 min (4T1 tumors) | specific labelling of macrophages in the tumor (ex vivo) [1] | binding to control protein BSA (Bovine serum albumin) | binding to immobilized RXRB compared to control peptide FAM-GGS [2]
GGSGGSKG [FAM-GGS, FAM-labeled control peptide] | no fluorescence signals | could not specifically label macrophages | neither peptide bound | 
CRVLRSGSC [cyclic macrophage-targeting peptide] |  |  | neither peptide bound | significantly higher binding
